Assay results published in patent US20240247080A1, “GLP1/GIP/NPY2 RECEPTOR TRIPLE AGONISTS” (Boehringer Ingelheim International GmbH, priority 2022, published 2024).
Changes are numbered by the printed parent chain. Starred links: 1 amine or outer side, 2 acyl side, 3 side chain; linkers in the order of their positions; H or OH if unused. Non-standard residues stand in square brackets, D forms with d. Groups on a side chain read outwards from the residue. No end group written: not given here. *: point of attachment. C20 diacid = O=C(O)CCCCCCCCCCCCCCCCCCC(=O)*; γGlu = O=C(O)[C@H](CCC(=O)[*:2])N[*:1]; εLys = N[C@@H](CCCCN[*:1])C(=O)[*:2]; Aib = CC(C)(N)C(=O)O

T1: human GIP receptor (human, UniProt P48546 22-466)
T1 sequence (looked up): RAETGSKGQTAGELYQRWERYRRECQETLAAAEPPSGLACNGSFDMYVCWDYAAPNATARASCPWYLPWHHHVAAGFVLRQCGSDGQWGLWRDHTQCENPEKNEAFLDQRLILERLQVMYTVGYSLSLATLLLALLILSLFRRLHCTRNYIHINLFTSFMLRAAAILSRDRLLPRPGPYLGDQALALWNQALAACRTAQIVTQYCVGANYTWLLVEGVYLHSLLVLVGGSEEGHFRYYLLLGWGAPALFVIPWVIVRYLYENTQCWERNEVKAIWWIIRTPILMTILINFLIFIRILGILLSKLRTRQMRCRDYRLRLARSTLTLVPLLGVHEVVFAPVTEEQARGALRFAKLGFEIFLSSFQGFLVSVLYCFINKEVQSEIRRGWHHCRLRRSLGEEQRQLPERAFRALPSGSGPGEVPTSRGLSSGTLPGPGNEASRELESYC

T2: human neuropeptide Y2 (NPY2) receptor (human, UniProt P49146 1-381)
T2 sequence (looked up): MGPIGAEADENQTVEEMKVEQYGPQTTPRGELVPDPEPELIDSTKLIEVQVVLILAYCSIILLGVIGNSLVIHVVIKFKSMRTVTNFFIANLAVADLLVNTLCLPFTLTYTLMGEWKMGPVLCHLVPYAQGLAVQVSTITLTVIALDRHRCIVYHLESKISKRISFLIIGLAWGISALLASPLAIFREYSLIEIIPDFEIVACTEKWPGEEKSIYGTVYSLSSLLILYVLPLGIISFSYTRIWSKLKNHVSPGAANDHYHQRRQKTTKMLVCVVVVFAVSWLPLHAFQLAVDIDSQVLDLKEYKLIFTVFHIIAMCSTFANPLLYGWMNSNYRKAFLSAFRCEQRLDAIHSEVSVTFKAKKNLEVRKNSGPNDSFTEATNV

B1: Compound 22 (peptide)
peptide: YXEGTFTSDYSIXLEKQAQXAFVQWLIKGGQSSYASLRHYYNWLTRQRY
modifications: Aib at 2, 13, 20; K28 side chain: C20DA-gGlu-gGlu-gGlu-gGlu-gGlu-Glu-eLys; C-terminal NH2
B2: Compound 27 (peptide)
peptide: B1 peptide with Q24E, Q31P, Y34G, A35V, L37I
modifications: Aib at 2, 13, 20; K28 side chain: C20DA-gGlu-gGlu-gGlu-gGlu-gGlu-gGlu-eLys; C-terminal NH2
B3: Compound 36 (peptide)
peptide: B1 peptide with A21E, Q31P, Y34G
modifications: Aib at 2, 13, 20; K28 side chain: C20DA-gGlu-gGlu-gGlu-gGlu-gGlu-OEG-OEG; C-terminal NH2
B4: Compound 24 (peptide)
peptide: B1 peptide with K16X, Q17K, A21E, Q24E, Q31P, Y34G
modifications: Aib at 2, 13, 16, 20; K28 side chain: C20DA-gGlu-gGlu-gGlu-gGlu-gGlu-gGlu-eLys; C-terminal NH2
B5: Compound 33 (peptide)
peptide: B1 peptide with Q24E, Q31P, Y34A, A35V
modifications: Aib at 2, 13, 20; K28 side chain: C20DA-gGlu-gGlu-gGlu-gGlu-gGlu-gGlu-eLys; C-terminal NH2
B6: Compound 31 (peptide)
peptide: B1 peptide with K16E, Q24E, Q31P, Y34G, A35Q
modifications: Aib at 2, 13, 20; K28 side chain: C20DA-gGlu-gGlu-gGlu-gGlu-gGlu-gGlu-eLys; C-terminal NH2
B7: Compound 25 (peptide)
peptide: B1 peptide with K16A, Q17A, A18K, Q24E, Q31P, Y34G
modifications: Aib at 2, 13, 20; K28 side chain: C20DA-gGlu-gGlu-gGlu-gGlu-gGlu-gGlu-eLys; C-terminal NH2
B8: Compound 35 (peptide)
peptide: B1 peptide with Q31P, Y34G, A35E
modifications: Aib at 2, 13, 20; K28 side chain: C20DA-gGlu-gGlu-gGlu-gGlu-gGlu-gGlu-eK; C-terminal NH2
B9: Compound 29 (peptide)
peptide: B1 peptide with Q31P, S32E, Y34G
modifications: Aib at 2, 13, 20; K28 side chain: C20DA-gGlu-gGlu-gGlu-gGlu-gGlu; C-terminal NH2
B10: Compound 30 (peptide)
peptide: B1 peptide with K16E, Q31P, Y34G
modifications: Aib at 2, 13, 20; K28 side chain: C20DA-gGlu-gGlu-Glu-gGlu-gGlu-gGlu-eLys; C-terminal NH2
B11: Compound 32 (peptide)
peptide: B1 peptide with Q31P, S32E, Y34G
modifications: Aib at 2, 13, 20; K28 side chain: C20DA-gGlu-gGlu-gGlu-gGlu-gGlu-OEG-OEG; C-terminal NH2
B12: Compound 26 (peptide)
peptide: B1 peptide with Q24E, Q31P, Y34G, L37X, R46X
modifications: Aib at 2, 13, 20, 37; hArg 46; DTyr 49; K28 side chain: C20DA-gGlu-gGlu-gGlu-gGlu-gGlu-gGlu-eLys; C-terminal NH2
B13: Compound 4 (peptide)
peptide: YXEGTFTSDYSIXLEKQAQXAFVEWLIKGGPSSGASXRHYXNRXTRQRY
modifications: Aib at 2, 13, 20, 37, 41, 44; K28 side chain: C20DA-gGlu-gGlu-gGlu-gGlu-gGlu-gGlu-eLys; C-terminal NH2

How the values were obtained:
Assay in all cases: cell-based or functional assay
[1] = molecular target: T1, human GIP receptor
[2] = molecular target: T2, human neuropeptide Y2 (NPY2) receptor
[3] = molecular target: human GLP-1 receptor (human, UniProt P43220 24-463)

Binder	EC50, CreLuc assay, 0.5% hP [1]	EC50, CreLuc assay, 100% hP [1]	EC50, CreLuc assay, 0.5% hP [2]	EC50, CreLuc assay, 100% hP [2]	EC50, CreLuc assay, 0.5% hP [3]	EC50, CreLuc assay, 100% hP [3]
B1	0.54 nM	6.62 nM	8.06 nM	21.3 nM	0.45 nM	15.9 nM
B2	0.17 nM	1.11 nM	7.16 nM	21 nM	0.1 nM	1.97 nM
B3	0.26 nM	1.57 nM	8.03 nM	26.8 nM	0.28 nM	7.78 nM
B4	4.1 nM	17.7 nM	26.8 nM	94.5 nM	1.77 nM	15.3 nM
B5	0.25 nM	1.51 nM	9.93 nM	26.7 nM	0.14 nM	3.17 nM
B6	0.15 nM	2.63 nM	13.4 nM	43.5 nM	0.06 nM	2.94 nM
B7	0.98 nM	6.97 nM	13 nM	38.3 nM	0.67 nM	14.2 nM
B8	0.06 nM	0.96 nM	11.6 nM	29.3 nM	0.07 nM	1.3 nM
B9	0.23 nM	4.08 nM	8.79 nM	74.5 nM	0.13 nM	6.74 nM
B10	0.13 nM	1.06 nM	13.3 nM	56.2 nM	0.08 nM	1.08 nM
B11	0.16 nM	1.15 nM	12.2 nM	49.3 nM	0.07 nM	4.74 nM
B12	0.09 nM	0.7 nM	> 100 nM	670 nM	0.07 nM	1.18 nM
Y[Aib]EGTFTSDYSI[Aib]LEEQAQ[Aib]AFVQWLIK([εLys-γGlu-γGlu-γGlu-γGlu-γGlu-C20 diacid])GGPSSGASLRHYYNWLTRQRY-NH2 (also: TFA salt) [Compound 34]	0.13 nM	1.61 nM	14.6 nM	66.7 nM	0.09 nM	1.39 nM
Y[Aib]EGTFTSDYSI[Aib]LEKQAQ[Aib]EFVQWLIKGGPSSGASLRHYYNWLTRQRY-NH2 (not fully specified (residue 28); also: TFA salt) [Compound 28]	0.38 nM	3.08 nM	10.3 nM	46 nM	0.22 nM	6.51 nM
B13	0.25 nM	1.66 nM	66.4 nM	182 nM	0.09 nM	1.74 nM
Y[Aib]EGTFTSDYSI[Aib]LEKQAQ[Aib]AFVQWLIK([εLys-Glu-γGlu-γGlu-γGlu-γGlu-C20 diacid])GGPEYYASLRHYYNWLTRQRY-NH2 (also: TFA salt) [Compound 23]	0.56 nM	11.4 nM	10.1 nM	72.4 nM	0.47 nM	37.7 nM
